Consider 2 molecules from PMC7504044 (International Journal of Molecular Sciences, 2020).

The target in data set [1] is emerin (Caenorhabditis elegans) (UniProt O01971). The conditions noted are these: cited from earlier work.
Data set [2] concerns the molecule itself. The experiment in a line: SPR; GST–emerin coupled by EDC–NHS to polyethylene glycol/carboxyl sensor slides (Reichert SR7500DC); five increasing concentrations of analyte in PBST at 40 µL/min, 150 s association, 150 s dissociation, no regeneration. In general terms: Surface plasmon resonance follows binding to a sensor surface in real time, without labels.
Data set [3] concerns the molecule itself. The experiment in a line: SPR.

By Kd is commonly meant the concentration at which binding is half-saturated. Turning to emerin (from UniProt O01971), the Kd in data set [1] was 14 nM.

B1: GST–emerin (full-length emerin fused to GST) (natural protein, UniProt P50402 1-254, looked up)
chain: MDNYADLSDTELTTLLRRYNIPHGPVVGSTRRLYEKKIFEYETQRRRLSPPSSSAASSYSFSDLNSTRGDADMYDLPKKEDALLYQSKGYNDDYYEESYFTTRTYGEPESAGPSRAVRQSVTSFPDADAFHHQVHDDDLLSSSEEECKDRERPMYGRDSAYQSITHYRPVSASRSSLDLSYYPTSSSTSFMSSSSSSSSWLTRRAIRPENRAPGAGLGQDRQVPLWGQLLLFLVFVIVLFFIYHFMQAEEGNPF
notes: emerin, full-length; also called pGST–emerin; source: E. coli BL21, purified (glutathione-Sepharose)
The koff is the rate constant with which the complex falls apart. As for B1, the equilibrium dissociation constant (Kd) in data set [2] was 1.87 nM. In addition, the off-rate (koff) in data set [3] came out at 0.00154 s⁻¹.
